Measured values from patent publication US20140206607A1 (INDIANA UNIVERSITY RESEARCH AND TECHNOLOGY, published 2014).
Numbered stars: 1 amine (or outer) side, 2 acyl side, 3 side chain; on linkers, the order of the positions; unused ones are H or OH. Square brackets hold non-standard residues; d marks the D form. Side chains are listed from the residue outwards. Ends that are not written are not given here. * marks the point of attachment. 40K‑TE PEG = 40 kDa PEG covalently bound via thioether, formed by reaction of the free thiol of the peptide (Cys side chain) with an iodoacetic-functionalized PEG; γGlu = O=C(O)[C@H](CCC(=O)[*:2])N[*:1]; Palmitoyl = CCCCCCCCCCCCCCCC(=O)*; Aib = CC(C)(N)C(=O)O

T1: GIP receptor (UniProt P48546 22-466)
T1 sequence (looked up): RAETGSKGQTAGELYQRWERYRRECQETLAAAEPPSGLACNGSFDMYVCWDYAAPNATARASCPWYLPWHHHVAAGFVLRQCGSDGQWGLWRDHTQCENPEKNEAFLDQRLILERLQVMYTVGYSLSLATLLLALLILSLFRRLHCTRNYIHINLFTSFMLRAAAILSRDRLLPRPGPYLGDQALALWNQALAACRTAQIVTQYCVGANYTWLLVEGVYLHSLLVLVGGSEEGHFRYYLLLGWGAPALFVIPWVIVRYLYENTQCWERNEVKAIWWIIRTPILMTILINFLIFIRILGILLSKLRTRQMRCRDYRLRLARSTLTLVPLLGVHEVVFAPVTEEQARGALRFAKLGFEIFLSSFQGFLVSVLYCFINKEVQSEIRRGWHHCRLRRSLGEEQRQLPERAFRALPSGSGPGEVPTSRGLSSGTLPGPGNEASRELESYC

B1: peptide of SEQ ID NO: 27 (peptide)
peptide: H[dS]QGTFTSDK([γGlu-Palmitoyl])SKYLDERAAQDFVQWLLKGRG-NH2
modifications: N-terminus assumed
SMILES: CCCCCCCCCCCCCCCC(=O)N[C@@H](CCC(=O)NCCCC[C@H](NC(=O)[C@H](CC(=O)O)NC(=O)[C@H](CO)NC(=O)[C@@H](NC(=O)[C@H](Cc1ccccc1)NC(=O)[C@@H](NC(=O)CNC(=O)[C@H](CCC(N)=O)NC(=O)[C@@H](CO)NC(=O)[C@@H](N)Cc1c[nH]cn1)[C@@H](C)O)[C@@H](C)O)C(=O)N[C@@H](CO)C(=O)N[C@@H](CCCCN)C(=O)N[C@@H](Cc1ccc(O)cc1)C(=O)N[C@@H](CC(C)C)C(=O)N[C@@H](CC(=O)O)C(=O)N[C@@H](CCC(=O)O)C(=O)N[C@@H](CCCNC(=N)N)C(=O)N[C@@H](C)C(=O)N[C@@H](C)C(=O)N[C@@H](CCC(N)=O)C(=O)N[C@@H](CC(=O)O)C(=O)N[C@@H](Cc1ccccc1)C(=O)N[C@H](C(=O)N[C@@H](CCC(N)=O)C(=O)N[C@@H](Cc1c[nH]c2ccccc12)C(=O)N[C@@H](CC(C)C)C(=O)N[C@@H](CC(C)C)C(=O)N[C@@H](CCCCN)C(=O)NCC(=O)N[C@@H](CCCNC(=N)N)C(=O)NCC(N)=O)C(C)C)C(=O)O
B2: peptide of SEQ ID NO: 28 (peptide)
peptide: H[dS]QGTFTSDK([γGlu-Palmitoyl])SKYLDERAAQDFVQWLLDGRK-NH2
modifications: N-terminus assumed
SMILES: CCCCCCCCCCCCCCCC(=O)N[C@@H](CCC(=O)NCCCC[C@H](NC(=O)[C@H](CC(=O)O)NC(=O)[C@H](CO)NC(=O)[C@@H](NC(=O)[C@H](Cc1ccccc1)NC(=O)[C@@H](NC(=O)CNC(=O)[C@H](CCC(N)=O)NC(=O)[C@@H](CO)NC(=O)[C@@H](N)Cc1c[nH]cn1)[C@@H](C)O)[C@@H](C)O)C(=O)N[C@@H](CO)C(=O)N[C@@H](CCCCN)C(=O)N[C@@H](Cc1ccc(O)cc1)C(=O)N[C@@H](CC(C)C)C(=O)N[C@@H](CC(=O)O)C(=O)N[C@@H](CCC(=O)O)C(=O)N[C@@H](CCCNC(=N)N)C(=O)N[C@@H](C)C(=O)N[C@@H](C)C(=O)N[C@@H](CCC(N)=O)C(=O)N[C@@H](CC(=O)O)C(=O)N[C@@H](Cc1ccccc1)C(=O)N[C@H](C(=O)N[C@@H](CCC(N)=O)C(=O)N[C@@H](Cc1c[nH]c2ccccc12)C(=O)N[C@@H](CC(C)C)C(=O)N[C@@H](CC(C)C)C(=O)N[C@@H](CC(=O)O)C(=O)NCC(=O)N[C@@H](CCCNC(=N)N)C(=O)N[C@@H](CCCCN)C(N)=O)C(C)C)C(=O)O
B3: peptide of SEQ ID NO: 29 (peptide)
peptide: H[Aib]QGTFTSDK([γGlu-γGlu-Palmitoyl])SKYLD[Aib]RAAQDFVQWLL[Aib]GRG-NH2
modifications: N-terminus assumed
SMILES: CCCCCCCCCCCCCCCC(=O)N[C@@H](CCC(=O)N[C@@H](CCC(=O)NCCCC[C@H](NC(=O)[C@H](CC(=O)O)NC(=O)[C@H](CO)NC(=O)[C@@H](NC(=O)[C@H](Cc1ccccc1)NC(=O)[C@@H](NC(=O)CNC(=O)[C@H](CCC(N)=O)NC(=O)C(C)(C)NC(=O)[C@@H](N)Cc1c[nH]cn1)[C@@H](C)O)[C@@H](C)O)C(=O)N[C@@H](CO)C(=O)N[C@@H](CCCCN)C(=O)N[C@@H](Cc1ccc(O)cc1)C(=O)N[C@@H](CC(C)C)C(=O)N[C@@H](CC(=O)O)C(=O)NC(C)(C)C(=O)N[C@@H](CCCNC(=N)N)C(=O)N[C@@H](C)C(=O)N[C@@H](C)C(=O)N[C@@H](CCC(N)=O)C(=O)N[C@@H](CC(=O)O)C(=O)N[C@@H](Cc1ccccc1)C(=O)N[C@H](C(=O)N[C@@H](CCC(N)=O)C(=O)N[C@@H](Cc1c[nH]c2ccccc12)C(=O)N[C@@H](CC(C)C)C(=O)N[C@@H](CC(C)C)C(=O)NC(C)(C)C(=O)NCC(=O)N[C@@H](CCCNC(=N)N)C(=O)NCC(N)=O)C(C)C)C(=O)O)C(=O)O
B4: peptide of SEQ ID NO: 30 (peptide)
peptide: H[Aib]QGTFTSDK([γGlu-Palmitoyl])SKYLD[Aib]RAAQDFVQWLLDGRG-NH2
modifications: N-terminus assumed
SMILES: CCCCCCCCCCCCCCCC(=O)N[C@@H](CCC(=O)NCCCC[C@H](NC(=O)[C@H](CC(=O)O)NC(=O)[C@H](CO)NC(=O)[C@@H](NC(=O)[C@H](Cc1ccccc1)NC(=O)[C@@H](NC(=O)CNC(=O)[C@H](CCC(N)=O)NC(=O)C(C)(C)NC(=O)[C@@H](N)Cc1c[nH]cn1)[C@@H](C)O)[C@@H](C)O)C(=O)N[C@@H](CO)C(=O)N[C@@H](CCCCN)C(=O)N[C@@H](Cc1ccc(O)cc1)C(=O)N[C@@H](CC(C)C)C(=O)N[C@@H](CC(=O)O)C(=O)NC(C)(C)C(=O)N[C@@H](CCCNC(=N)N)C(=O)N[C@@H](C)C(=O)N[C@@H](C)C(=O)N[C@@H](CCC(N)=O)C(=O)N[C@@H](CC(=O)O)C(=O)N[C@@H](Cc1ccccc1)C(=O)N[C@H](C(=O)N[C@@H](CCC(N)=O)C(=O)N[C@@H](Cc1c[nH]c2ccccc12)C(=O)N[C@@H](CC(C)C)C(=O)N[C@@H](CC(C)C)C(=O)N[C@@H](CC(=O)O)C(=O)NCC(=O)N[C@@H](CCCNC(=N)N)C(=O)NCC(N)=O)C(C)C)C(=O)O
B5: peptide of SEQ ID NO: 31 (peptide)
peptide: H[Aib]QGTFTSDK([γGlu-γGlu-Palmitoyl])SKYLD[Aib]RAAQDFVQWLMKGRG-OH
modifications: N-terminus assumed
SMILES: CCCCCCCCCCCCCCCC(=O)N[C@@H](CCC(=O)N[C@@H](CCC(=O)NCCCC[C@H](NC(=O)[C@H](CC(=O)O)NC(=O)[C@H](CO)NC(=O)[C@@H](NC(=O)[C@H](Cc1ccccc1)NC(=O)[C@@H](NC(=O)CNC(=O)[C@H](CCC(N)=O)NC(=O)C(C)(C)NC(=O)[C@@H](N)Cc1c[nH]cn1)[C@@H](C)O)[C@@H](C)O)C(=O)N[C@@H](CO)C(=O)N[C@@H](CCCCN)C(=O)N[C@@H](Cc1ccc(O)cc1)C(=O)N[C@@H](CC(C)C)C(=O)N[C@@H](CC(=O)O)C(=O)NC(C)(C)C(=O)N[C@@H](CCCNC(=N)N)C(=O)N[C@@H](C)C(=O)N[C@@H](C)C(=O)N[C@@H](CCC(N)=O)C(=O)N[C@@H](CC(=O)O)C(=O)N[C@@H](Cc1ccccc1)C(=O)N[C@H](C(=O)N[C@@H](CCC(N)=O)C(=O)N[C@@H](Cc1c[nH]c2ccccc12)C(=O)N[C@@H](CC(C)C)C(=O)N[C@@H](CCSC)C(=O)N[C@@H](CCCCN)C(=O)NCC(=O)N[C@@H](CCCNC(=N)N)C(=O)NCC(=O)O)C(C)C)C(=O)O)C(=O)O
B6: peptide of SEQ ID NO: 32 (peptide)
peptide: H[Aib]QGTFTSDK([γGlu-γGlu-Palmitoyl])SKYLD[Aib]RAAQDFVQWLMDTK[dA]-OH
modifications: N-terminus assumed
SMILES: CCCCCCCCCCCCCCCC(=O)N[C@@H](CCC(=O)N[C@@H](CCC(=O)NCCCC[C@H](NC(=O)[C@H](CC(=O)O)NC(=O)[C@H](CO)NC(=O)[C@@H](NC(=O)[C@H](Cc1ccccc1)NC(=O)[C@@H](NC(=O)CNC(=O)[C@H](CCC(N)=O)NC(=O)C(C)(C)NC(=O)[C@@H](N)Cc1c[nH]cn1)[C@@H](C)O)[C@@H](C)O)C(=O)N[C@@H](CO)C(=O)N[C@@H](CCCCN)C(=O)N[C@@H](Cc1ccc(O)cc1)C(=O)N[C@@H](CC(C)C)C(=O)N[C@@H](CC(=O)O)C(=O)NC(C)(C)C(=O)N[C@@H](CCCNC(=N)N)C(=O)N[C@@H](C)C(=O)N[C@@H](C)C(=O)N[C@@H](CCC(N)=O)C(=O)N[C@@H](CC(=O)O)C(=O)N[C@@H](Cc1ccccc1)C(=O)N[C@H](C(=O)N[C@@H](CCC(N)=O)C(=O)N[C@@H](Cc1c[nH]c2ccccc12)C(=O)N[C@@H](CC(C)C)C(=O)N[C@@H](CCSC)C(=O)N[C@@H](CC(=O)O)C(=O)N[C@H](C(=O)N[C@@H](CCCCN)C(=O)N[C@H](C)C(=O)O)[C@@H](C)O)C(C)C)C(=O)O)C(=O)O

Experiments:
Assay in all cases: cell-based or functional assay
GIP receptor = target: T1, GIP receptor
GLP-1 receptor = GLP-1 receptor (UniProt P43220 24-463, limits assumed)
glucagon receptor = glucagon receptor (UniProt P47871 26-477, limits assumed)
Chain of glucagon receptor (P47871 26-477 limits assumed): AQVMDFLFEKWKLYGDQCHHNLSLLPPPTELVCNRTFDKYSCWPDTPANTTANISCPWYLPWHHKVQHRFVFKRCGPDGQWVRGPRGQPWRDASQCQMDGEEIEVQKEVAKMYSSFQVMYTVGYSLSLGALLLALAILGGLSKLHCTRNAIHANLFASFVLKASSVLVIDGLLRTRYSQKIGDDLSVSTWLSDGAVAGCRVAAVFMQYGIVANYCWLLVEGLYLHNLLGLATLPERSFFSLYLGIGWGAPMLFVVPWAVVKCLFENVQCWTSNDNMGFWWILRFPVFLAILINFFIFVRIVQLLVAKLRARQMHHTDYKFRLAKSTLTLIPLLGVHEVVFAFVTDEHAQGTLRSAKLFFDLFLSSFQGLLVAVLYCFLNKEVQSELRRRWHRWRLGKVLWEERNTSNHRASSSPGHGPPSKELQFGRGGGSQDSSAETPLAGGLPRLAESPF

Row | Binder | EC50 (nM) at GIP receptor (GIP receptor) [nM] | EC50 (nM) at GLP-1 receptor (GLP-1 receptor) [nM] | EC50 (nM) at glucagon receptor (glucagon receptor) [nM]
1 | B1 | 2.12 | 0.005 | 0.022
2 | H[Aib]QGTFTSDYSKYLDERRA[Aib]EFVC(40K‑TE PEG)WLLDT-NH2 [peptide of SEQ ID NO: 14] | 33.7 | 0.076 | 0.365
3 | B2 | 2.84 | 0.003 | 0.015
4 | B3 | 1.65 | 0.007 | 0.014
5 | B4 | 9.06 | 0.0082 | 0.933
6 | B5 | 2.34 | 0.007 | 0.016
7 | B6 | 2.08 | 0.008 | 0.007
